Measurements reported in publication PMC10216145.

Biological target: thrombin (UniProt P00734;P00734 328-363;364-622)
Test: electrochemical aptasensor (DPV); immobilized aptamer; signal suppression on thrombin binding; LOD 0.26 fM, range 1.0 fM to 1.0 uM (abstract), not a Kd; Thrombin incubation 40 min at ambient temperature, wash with PBS; DPV in 25 mM PBS pH 7.0, -0.1 to 0.5 V

GGTTGGTGTGGTTGG (ssDNA, 5'-SH-(CH2)6) [TBA (thrombin aptamer)]
binding result: binds
